Measurements taken from the RNAGym collection of RNA variant scans (doi:10.1073/pnas.2313332121).

B1: TPR t1 (parent)
chain: GACCAAUCUGCCCUCAGAGCUCGAGAACAUCUUCGGAUGCAGAGGAGGCAGGCUUCGGUGGCGCGAUAGCGCCAACGUCCUCAACCUCCAAUGCAUCCCACCACAUGAUGAUGCCUGAAGAGCCUUGGUUUUUUG

Variants of: B1
Assay: polymerase ribozyme fitness, log enrichment relative to wild type (log ratio); higher = more active; in vitro selection for triplet polymerase activity
In short: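 One round of in vitro selection, in triplicate, was applied to PCR-built, transcribed mutant libraries of each subunit of a heterodimeric triplet polymerase ribozyme. The steps were annealing with a biotinylated primer, partner subunit and triplets, incubation frozen at −7 °C, gel excision of extended constructs, streptavidin-bead capture and RT-PCR. Fitness is the logarithm, base 2, of genotype enrichment over wild-type enrichment from inverse-variance-weighted replicate averages of Illumina-sequenced inputs and outputs, keeping genotypes with ≥10 input reads and ≥1 read per output.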

Point of comparison: G42U C72U U125A, “polymerase ribozyme fitness (log ratio)” value -1.92. Against it:
- A41G U54A G61C — within 0.2 log units, -2.03
- A41U C89U G113U G117U — lower, -5.95
- G42C G69U C70G — higher, -1.55
- G42U C79U A100U — lower, -2.8
- A41U C49A G52C C72U — lower, -3.5
- A43C C49G A84G C115U G135U — lower, -6.22
- G42A G69C C124U — lower, -2.56
- G42U C73A U106C — within 0.2 log units, -1.97
- A41U C72A — within 0.2 log units, -1.82
- A41C C72U A74G A91U A95C G113A — lower, -3.31
- G42C C72A — higher, -1.16
- G42C C72G — within 0.2 log units, -1.76
- G42U G58C U87C G120A C123G U125A — higher, 0.38
- G42A C56G C85G G93A G120C — lower, -3.01
- G42A G60U C82U U112G G127C — lower, -3.6
- C40U U109C — lower, -4.01
- G42A G45A A50G G113U U129A G135A — lower, -3.94
- A41U C64U C94U U133G — within 0.2 log units, -1.82
- C40U A50C C76G G77C C80U U131G — lower, -4.6
- A41G C49G C82U C85U U131G — higher, -1.67
- A41C G44U C115A G122U U130G — lower, -4.66
- A41U A90C C115G — lower, -4.39
- G42C C49U G63A G120A G128U — lower, -5.69
- G42C C56G C72G C88G C114A — lower, -7.1
- A41U C123U — higher, -0.183
- G42C C56A G122A — lower, -2.92
- A41G G61A — higher, -0.141
- C40U C124G — higher, 1.52
- G42C C80U U92G — lower, -3.41
- A41G G69A C85A — lower, -5.81
- C40U A84C U112A — higher, 0.737
- A41G G61A C101U U133G — higher, -1.01
- A41G A83C C98U — within 0.2 log units, -1.73
- C40U A90G C102G — lower, -4.16
- A41C G48A G60A C86U U96G — lower, -3.39
- C40G U59A — higher, -1.68
- A41U C104U C124U — higher, 0.576
- G42A C70A C89A C124U — lower, -4
- G42C C53U G93A — lower, -3.13
- A41C C114U — lower, -2.16
- C40G G117C — lower, -3.98
- G42A G110A — lower, -2.55
- G42A C88A A121U — higher, 0.406
- G42U U87G — higher, -0.907
- A41U C56A — higher, -1.52
- G42C G127A — lower, -2.97
- C40U G47A U109A C114U — lower, -6.24
- G42U C56G C123U — higher, -0.406
- A41C U81A U133G — lower, -2.53
- G42A G47A — lower, -2.34
- G42A G44U C73A — higher, -1.69
- G42C G44U G63U C123A G128C — lower, -3.33
- G42U G47U G120U — higher, -1.57
- G42C C56G C88G C114A — lower, -5.36
- G42A U87A C89U — lower, -2.26
- A41U G93C — within 0.2 log units, -2.07
- G42U G69C G120U — lower, -3.45
- G42C C88G — lower, -3.51
- A41G C73A C82A C115A G135U — lower, -2.65
- G42C G52U — lower, -2.21
- A41G U81A — higher, -1.07
- A41U G42A G52A — lower, -3.18
- A41G A118G G120U U130A — higher, -1.43
- C40U C80G — lower, -5.42
- C40U G61U C97A — lower, -5.61
- A41C G58A C72U — higher, -0.757
- C40U A43U A90G G113U — lower, -3.26
- G42U C49U G61A — higher, -1.64
- C40U G42C G63U C85U U130A — lower, -5.03
- G42C A43G A84C C114A — within 0.2 log units, -2
- A41U U54C A75G C88A U133A — within 0.2 log units, -1.96
- A41C U106C A111C — within 0.2 log units, -2.11
- G42U G47U G60A U112A C114U G117C — lower, -5.02
- A41C A90C C123G G128C — within 0.2 log units, -2.07
- A41U C104A — lower, -3.22
- A41G A46U — lower, -3.31
- A41G G44A C123U — higher, 0.224
- G42C G63A C88U — lower, -3.63
- G42C C82U — higher, -1.49
- A41U C124G — higher, 0.981
- G42C C49A U92C G117A G122A — lower, -4.11
- A41C U55A C102U — lower, -3.43
